The series in a line: Serum insulin concentration vs. time in diabetic rat after administration of insulin by the microdevice with occlusive layer. Type of series: in vivo. The source says:
The serum concentration reached 110±5.37 μIU/ml and stayed relatively constant at this level when the occlusive layer was applied.

Take “Novolin R®: Novolin R insulin administered to a diabetic rat by the present microdevice”: the “Serum insulin concentration after removal of the occlusive layer” value (after removal of the occlusive layer) is given as “rapidly dropped”. Also, the Serum insulin concentration (microdevice administration, occlusive layer applied, level reached and stayed relatively constant) is 110±5.37 μIU/ml.

The values are drawn from patent US10525246B2, “Microdevice and method for transdermal delivery and sampling of active substances” (NANOMED SKINCARE, INC., priority 2006, dated 2020).
